B1: BAG3 with complete deletion of the IPV2 motif (recombinant) (natural protein)
chain: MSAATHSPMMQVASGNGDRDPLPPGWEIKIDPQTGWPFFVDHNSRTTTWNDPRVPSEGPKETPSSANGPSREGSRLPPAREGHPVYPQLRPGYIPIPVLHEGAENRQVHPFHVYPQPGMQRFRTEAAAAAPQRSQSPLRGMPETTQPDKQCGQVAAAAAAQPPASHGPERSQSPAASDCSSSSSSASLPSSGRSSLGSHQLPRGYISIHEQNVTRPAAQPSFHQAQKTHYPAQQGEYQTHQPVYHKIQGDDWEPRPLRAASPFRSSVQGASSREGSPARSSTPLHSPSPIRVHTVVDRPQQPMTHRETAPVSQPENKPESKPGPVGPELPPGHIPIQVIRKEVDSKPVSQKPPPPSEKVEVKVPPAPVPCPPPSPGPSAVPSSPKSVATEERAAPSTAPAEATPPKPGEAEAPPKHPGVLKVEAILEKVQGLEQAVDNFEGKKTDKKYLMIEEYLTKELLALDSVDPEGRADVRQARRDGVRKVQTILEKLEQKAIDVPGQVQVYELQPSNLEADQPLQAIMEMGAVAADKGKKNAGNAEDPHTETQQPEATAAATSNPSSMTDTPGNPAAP
B2: BAG3^WT (recombinant) (natural protein)
chain: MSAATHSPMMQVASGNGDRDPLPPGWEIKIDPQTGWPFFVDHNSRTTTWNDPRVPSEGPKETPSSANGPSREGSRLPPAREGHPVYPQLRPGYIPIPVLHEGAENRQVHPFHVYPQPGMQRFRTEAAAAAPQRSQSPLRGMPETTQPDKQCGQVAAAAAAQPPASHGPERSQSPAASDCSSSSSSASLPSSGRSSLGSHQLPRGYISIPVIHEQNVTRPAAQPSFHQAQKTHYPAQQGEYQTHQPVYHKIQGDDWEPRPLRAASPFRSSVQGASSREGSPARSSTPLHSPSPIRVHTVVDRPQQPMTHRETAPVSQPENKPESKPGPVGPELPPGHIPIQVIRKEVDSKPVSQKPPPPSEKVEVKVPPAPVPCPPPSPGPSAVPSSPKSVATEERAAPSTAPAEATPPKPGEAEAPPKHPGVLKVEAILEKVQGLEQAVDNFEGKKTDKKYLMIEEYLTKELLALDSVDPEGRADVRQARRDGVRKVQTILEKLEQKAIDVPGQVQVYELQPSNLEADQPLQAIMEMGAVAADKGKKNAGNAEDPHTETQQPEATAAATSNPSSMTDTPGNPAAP
B3: BAG3 with deletion of both IPV motifs (recombinant) (natural protein)
chain: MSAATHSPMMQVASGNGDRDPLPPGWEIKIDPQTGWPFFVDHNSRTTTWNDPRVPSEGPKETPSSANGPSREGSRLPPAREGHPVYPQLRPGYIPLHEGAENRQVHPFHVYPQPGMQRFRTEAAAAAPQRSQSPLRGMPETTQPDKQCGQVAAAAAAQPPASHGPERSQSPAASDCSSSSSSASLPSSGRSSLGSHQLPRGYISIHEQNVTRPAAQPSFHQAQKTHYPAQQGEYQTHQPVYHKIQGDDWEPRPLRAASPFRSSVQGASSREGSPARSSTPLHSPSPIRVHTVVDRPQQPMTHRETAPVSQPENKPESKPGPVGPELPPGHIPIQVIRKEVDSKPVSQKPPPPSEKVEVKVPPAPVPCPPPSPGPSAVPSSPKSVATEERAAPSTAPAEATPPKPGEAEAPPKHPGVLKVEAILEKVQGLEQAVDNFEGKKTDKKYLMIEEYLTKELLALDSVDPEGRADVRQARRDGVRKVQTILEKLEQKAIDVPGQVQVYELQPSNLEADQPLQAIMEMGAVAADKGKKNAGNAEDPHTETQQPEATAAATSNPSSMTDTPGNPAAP

These binders were tested against HSPB1c/Hsp27c (model human HSPB fragment) (human, UniProt P04792 80-176) (assay: ITC).
Sequence of HSPB1c/Hsp27c (model human HSPB fragment) (P04792 80-176): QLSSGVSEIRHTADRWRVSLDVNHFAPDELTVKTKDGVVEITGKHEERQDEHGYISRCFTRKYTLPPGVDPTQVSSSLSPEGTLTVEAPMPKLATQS

Binder	Kd [nM]
B1	2000
B2	490
B3	> 100000

Source: article PMC6297355 (2018)
